Article PMC4841080

Assays:
Settings in all cases: glycan lost; control: wild type
[1] = Immunofluorescence co-staining with Golgi marker GRASP65
[2] = Western blot of Ni-NTA-concentrated conditioned medium
[3] = Western blot of cell lysates

B1: R-spondin1 (RSPO1): N137Q (protein)
parent chain: MRLGLCVVALVLSWTHLTISSRGIKGKRQRRISAEGSQACAKGCELCSEVNGCLKCSPKLFILLERNDIRQVGVCLPSCPPGYFDARNPDMNKCIKCKIEHCEACFSHNFCTKCKEGLYLHKGRCYPACPEGSSAANGTMECSSPAQCEMSEWSPWGPCSKKQQLCGFRRGSEERTRRVLHAPVGDHAACSDTKETRRCTVRRVPCPEGQKRRKGGQGRRENANRNLARKESKEAGAGSRRRKGQQQQQQQGTVGPLTSAGPA
In the case of B1, the localisation_or_trafficking [1] is reported as “no change”, the expression_or_secretion [2] is reported as “increases” and the expression_or_secretion [3] is reported as “increases”.
